Laboratory results reported in the supplement of paper PMC10724198.
± gives the standard deviation of the averaged measurements.

system: Saccharomyces cerevisiae; assay: protein stability index of tFT-peptide fusion (C-terminal peptide) (PSI (0-1 scale)); higher = more stable (slower turnover); details: genetic background: wild type; temperature: 30 C
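Note: PSI is a weighted mean of sequencing reads over stability bins, variants kept only with over 10 reads, mCherry proximal and sfGFP distal, peptide attached via GGGS linker.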

Sequence | protein stability index
QYGMSSQGGGHN | 0.7312 ± 0.0017
ASLPPLSPPSSL | 0.71 ± 0.045
SKVLRRLEPTIV | 0.603 ± 0.04
PPVPPPLPYLPP | 0.624 ± 0.031
PPPPPPPPPDPA | 0.666 ± 0.013
PSKTQKQYKTVA | 0.644 ± 0.094
MCWFDVSEWGLG | 0.754 ± 0.091
ERERQREKEKLK | 0.6735 ± 0.0038
GNLFIGLLHITC | 0.5753 ± 0.0034
GGWCGGSGRGAN | 0.63 ± 0.04
LWGMSDQGGGFR | 0.611 ± 0.083
PSPPPSSPPPRS | 0.686 ± 0.051
SCLATDSWLAFV | 0.665 ± 0.058
KQKKNKKKKQNR | 0.699 ± 0.036
QADAPPGDTNTL | 0.727 ± 0.041
RGLSGSHRAGIV | 0.69334 ± 0.00034
LPPSPHPPLPHL | 0.886 ± 0.011
KKKRKRKRSRRK | 0.639 ± 0.03
GPVQSISMTVGH | 0.6548 ± 0.0025
GGFFPRISSLTV | 0.707 ± 0.054
GGGCLRGFWCVW | 0.724 ± 0.046

Sequence | protein stability index
MLGGGGGVRVLG | 0.706 ± 0.011
YSGYRASLVFEI | 0.648 ± 0.099
KNKVTRNEKGIT | 0.639 ± 0.047
RFGCGRRGQWMR | 0.722 ± 0.06
ILCTVVKTDSKE | 0.702 ± 0.081
PPPLPPLPPPTL | 0.698 ± 0.045
MSCLSDFPVCFL | 0.726 ± 0.037
PPPFPYRTALLP | 0.708 ± 0.016
PSVYAASPPLPP | 0.68 ± 0.03
GACILARGVRRR | 0.656 ± 0.014
IGWCPASFMVIG | 0.585 ± 0.049
SYPDYFDSDSSD | 0.716 ± 0.011
PPPVPTRPSPPP | 0.6737 ± 0.0047
RCCGGSEVVRAG | 0.705 ± 0.014
LSPLPRLQPASP | 0.655 ± 0.071
GESPSTIRSVYS | 0.609 ± 0.038
RGWWVLCGGGWG | 0.567 ± 0.026
LPCCYVWFFLSL | 0.499 ± 0.023
KHPLAPLRRPVI | 0.68 ± 0.0078
LLINTARWSEAG | 0.662 ± 0.049
HKEHLDNPRLRP | 0.714 ± 0.012

Sequence | protein stability index
SLSRLVGPLVSS | 0.611 ± 0.0066
GAAIRVNRCGEG | 0.64136 ± 0.00011
NSSKHAWAWPVP | 0.68 ± 0.029
NKNNITKKRKKD | 0.749 ± 0.064
CSSVRRRSWCFS | 0.846 ± 0.16
PPTGHAPSRALT | 0.676 ± 0.091
YKKKKEEKNKKN | 0.583 ± 0.046
YRARTADRPRDQ | 0.729 ± 0.039
AAVLSYLKHLFV | 0.627 ± 0.022
KRGVVGFGKGGG | 0.6654 ± 0.0027
SLPFLPPSAPLP | 0.76 ± 0.014
GSVFWVCGFFRV | 0.559 ± 0.034
RSNECTSEMEVC | 0.689 ± 0.04
AALHPLRISASV | 0.646 ± 0.081
LDRTIPGPWPLR | 0.731 ± 0.042
SPPPPPPARCPS | 0.592 ± 0.045
GGGGETGRERKD | 0.655 ± 0.0061
PPLPSGLHPTLT | 0.6932 ± 0.0052
GMRFDTERKWLL | 0.695 ± 0.084
GARGWTVWVAGL | 0.632 ± 0.049
HFGRYLSSVFGV | 0.679 ± 0.05

Sequence | protein stability index
EKQICKVVKIKE | 0.777 ± 0.048
SLVWVVSDLGCG | 0.778 ± 0.11
HNIRIDTSEKNR | 0.6001 ± 0.0024
PPPYDPPRPLPR | 0.7209 ± 0.0027
PLTPPPALILFP | 0.693 ± 0.022
ARSSILRCRGYR | 0.747 ± 0.095
PGGAGKAYGSRL | 0.707 ± 0.012
TTRTAAKKIHKD | 0.74 ± 0.055
RRATHTRDINNL | 0.643 ± 0.015
RPYKINNNIEVK | 0.676 ± 0.01
SFLWRRSYFVFR | 0.616 ± 0.017
YGEGSPPCMPEL | 0.709 ± 0.017
CGQKREFKEGGG | 0.634 ± 0.0059
VDHWVCWCGGWV | 0.731 ± 0.0098
RSFPYLLFPPPS | 0.713 ± 0.046
VTGCAVLSGAGE | 0.675 ± 0.051
SPPVPLSPPLSP | 0.537 ± 0.023
RPPISLGSLLVG | 0.714 ± 0.1
